± gives the uncertainty stated by the source.
B1: KAT8 regulatory NSL complex subunit 2, residues 28 to 91; numbered along this chain, Q9H9L4 (parent)
chain: CAFTHRPCSHPRLEGQEFCIKHILEDKNAPFKQCSYISTKNGKRCPNAAPKPEKKDGVSFCAEH
B2: Androgen receptor, residues 557 to 632; numbered along this chain, P10275 (parent)
chain: QKTCLICGDEASGCHYGALTCGSCKVFFKRAAEGKQKYLCASRNDCTIDKFRRKNCPSCRLRKCYEAGMTLGARKL

Variants of: B1
Test: abundance fitness (aPCA) (normalised: wild type 0, dead -1); higher = more abundant; growth selection in yeast, the domain comes from the species named
Conditions: Homo sapiens

Variant	abundance fitness
CAFTHRPCSHPRLEGQEFCIKHILEDKNAPFKQCSYISTKNGKRCPNAAPKPEKKDGVSFCWEH [A62W]	-0.088 ± 0.031
CAFTHRPCSHPRLEGQEFCIKHILEDKNAPFKQCSYISTKNGKRCPNAAPKPEKKDGVSFCYEH [A62Y]	-0.198 ± 0.085
CAFTHRPCSHPRLEGQEFCIKHILEDKNAPFKQCSYISTKNGKRCPNAAPKPEKKDGVSFCAAH [E63A]	-0.064 ± 0.063
CAFTHRPCSHPRLEGQEFCIKHILEDKNAPFKQCSYISTKNGKRCPNAAPKPEKKDGVSFCACH [E63C]	-0.111 ± 0.077
CAFTHRPCSHPRLEGQEFCIKHILEDKNAPFKQCSYISTKNGKRCPNAAPKPEKKDGVSFCADH [E63D]	0.003 ± 0.06
CAFTHRPCSHPRLEGQEFCIKHILEDKNAPFKQCSYISTKNGKRCPNAAPKPEKKDGVSFCAFH [E63F]	-0.107 ± 0.079
CAFTHRPCSHPRLEGQEFCIKHILEDKNAPFKQCSYISTKNGKRCPNAAPKPEKKDGVSFCAGH [E63G]	-0.034 ± 0.05
CAFTHRPCSHPRLEGQEFCIKHILEDKNAPFKQCSYISTKNGKRCPNAAPKPEKKDGVSFCAHH [E63H]	0.136 ± 0.16
CAFTHRPCSHPRLEGQEFCIKHILEDKNAPFKQCSYISTKNGKRCPNAAPKPEKKDGVSFCAIH [E63I]	-0.223 ± 0.1
CAFTHRPCSHPRLEGQEFCIKHILEDKNAPFKQCSYISTKNGKRCPNAAPKPEKKDGVSFCAKH [E63K]	-0.09 ± 0.085
CAFTHRPCSHPRLEGQEFCIKHILEDKNAPFKQCSYISTKNGKRCPNAAPKPEKKDGVSFCALH [E63L]	-0.17 ± 0.047
CAFTHRPCSHPRLEGQEFCIKHILEDKNAPFKQCSYISTKNGKRCPNAAPKPEKKDGVSFCAMH [E63M]	-0.165 ± 0.075
CAFTHRPCSHPRLEGQEFCIKHILEDKNAPFKQCSYISTKNGKRCPNAAPKPEKKDGVSFCANH [E63N]	-0.062 ± 0.094
CAFTHRPCSHPRLEGQEFCIKHILEDKNAPFKQCSYISTKNGKRCPNAAPKPEKKDGVSFCAPH [E63P]	-0.188 ± 0.091
CAFTHRPCSHPRLEGQEFCIKHILEDKNAPFKQCSYISTKNGKRCPNAAPKPEKKDGVSFCAQH [E63Q]	-0.175 ± 0.091
CAFTHRPCSHPRLEGQEFCIKHILEDKNAPFKQCSYISTKNGKRCPNAAPKPEKKDGVSFCARH [E63R]	-0.024 ± 0.047
CAFTHRPCSHPRLEGQEFCIKHILEDKNAPFKQCSYISTKNGKRCPNAAPKPEKKDGVSFCASH [E63S]	-0.093 ± 0.047
CAFTHRPCSHPRLEGQEFCIKHILEDKNAPFKQCSYISTKNGKRCPNAAPKPEKKDGVSFCATH [E63T]	-0.054 ± 0.065
CAFTHRPCSHPRLEGQEFCIKHILEDKNAPFKQCSYISTKNGKRCPNAAPKPEKKDGVSFCAVH [E63V]	-0.175 ± 0.052

Variant	abundance fitness
CAFTHRPCSHPRLEGQEFCIKHILEDKNAPFKQCSYISTKNGKRCPNAAPKPEKKDGVSFCAWH [E63W]	-0.086 ± 0.057
CAFTHRPCSHPRLEGQEFCIKHILEDKNAPFKQCSYISTKNGKRCPNAAPKPEKKDGVSFCAYH [E63Y]	-0.138 ± 0.08
CAFTHRPCSHPRLEGQEFCIKHILEDKNAPFKQCSYISTKNGKRCPNAAPKPEKKDGVSFCAEA [H64A]	-0.582 ± 0.23
CAFTHRPCSHPRLEGQEFCIKHILEDKNAPFKQCSYISTKNGKRCPNAAPKPEKKDGVSFCAED [H64D]	-0.324 ± 0.11
CAFTHRPCSHPRLEGQEFCIKHILEDKNAPFKQCSYISTKNGKRCPNAAPKPEKKDGVSFCAEE [H64E]	-0.877 ± 0.32
CAFTHRPCSHPRLEGQEFCIKHILEDKNAPFKQCSYISTKNGKRCPNAAPKPEKKDGVSFCAEI [H64I]	-1.02 ± 0.32
CAFTHRPCSHPRLEGQEFCIKHILEDKNAPFKQCSYISTKNGKRCPNAAPKPEKKDGVSFCAEK [H64K]	-0.509 ± 0.34
CAFTHRPCSHPRLEGQEFCIKHILEDKNAPFKQCSYISTKNGKRCPNAAPKPEKKDGVSFCAEL [H64L]	-0.602 ± 0.081
CAFTHRPCSHPRLEGQEFCIKHILEDKNAPFKQCSYISTKNGKRCPNAAPKPEKKDGVSFCAEM [H64M]	-0.333 ± 0.22
CAFTHRPCSHPRLEGQEFCIKHILEDKNAPFKQCSYISTKNGKRCPNAAPKPEKKDGVSFCAEN [H64N]	-0.441 ± 0.082
CAFTHRPCSHPRLEGQEFCIKHILEDKNAPFKQCSYISTKNGKRCPNAAPKPEKKDGVSFCAEP [H64P]	-0.401 ± 0.13
CAFTHRPCSHPRLEGQEFCIKHILEDKNAPFKQCSYISTKNGKRCPNAAPKPEKKDGVSFCAEQ [H64Q]	-0.463 ± 0.21
CAFTHRPCSHPRLEGQEFCIKHILEDKNAPFKQCSYISTKNGKRCPNAAPKPEKKDGVSFCAER [H64R]	-0.427 ± 0.11
CAFTHRPCSHPRLEGQEFCIKHILEDKNAPFKQCSYISTKNGKRCPNAAPKPEKKDGVSFCAES [H64S]	-0.315 ± 0.15
CAFTHRPCSHPRLEGQEFCIKHILEDKNAPFKQCSYISTKNGKRCPNAAPKPEKKDGVSFCAET [H64T]	-0.33 ± 0.14
CAFTHRPCSHPRLEGQEFCIKHILEDKNAPFKQCSYISTKNGKRCPNAAPKPEKKDGVSFCAEV [H64V]	-0.534 ± 0.12
CAFTHRPCSHPRLEGQEFCIKHILEDKNAPFKQCSYISTKNGKRCPNAAPKPEKKDGVSFCAEW [H64W]	-1.55 ± 0.46
CAFTHRPCSHPRLEGQEFCIKHILEDKNAPFKQCSYISTKNGKRCPNAAPKPEKKDGVSFCAEY [H64Y]	-0.781 ± 0.12

Variants of: B2
Test: as above
Conditions: Homo sapiens

Variant	abundance fitness
QKTCLICGDEASGCHYGALTCGSCKVFFKRAMEGKQKYLCASRNDCTIDKFRRKNCPSCRLRKCYEAGMTLGARKL [A32M]	-0.019 ± 0.068
QKTCLICGDEASGCHYGALTCGSCKVFFKRAAEGKQKYLCASRNDCTIRKFRRKNCPSCRLRKCYEAGMTLGARKL [D49R]	-0.342 ± 0.081
QKTCLICGDEASGCHYGALTCGLCKVFFKRAAEGKQKYLCASRNDCTIDKFRRKNCPSCRLRKCYEAGMTLGARKL [S23L]	-0.283 ± 0.035
QKTCLICGDEASGCHYGALTCGFCKVFFKRAAEGKQKYLCASRNDCTIDKFRRKNCPSCRLRKCYEAGMTLGARKL [S23F]	-0.11 ± 0.084

From the Human Domainome abundance scans (Beltran et al. 2025)
